Molecular target: human CD3 (human, UniProt P07766 23-207; P04234 22-171; P09693 23-182)
Experiment: cell-based or functional assay

human CD3, sequence (P07766 23-207, chain 1 of 3): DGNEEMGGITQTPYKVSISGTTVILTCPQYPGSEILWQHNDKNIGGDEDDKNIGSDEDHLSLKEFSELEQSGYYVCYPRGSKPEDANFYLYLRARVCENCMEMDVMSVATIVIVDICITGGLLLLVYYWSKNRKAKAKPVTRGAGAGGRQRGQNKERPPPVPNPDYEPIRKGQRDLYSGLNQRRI
human CD3, sequence (P04234 22-171, chain 2 of 3): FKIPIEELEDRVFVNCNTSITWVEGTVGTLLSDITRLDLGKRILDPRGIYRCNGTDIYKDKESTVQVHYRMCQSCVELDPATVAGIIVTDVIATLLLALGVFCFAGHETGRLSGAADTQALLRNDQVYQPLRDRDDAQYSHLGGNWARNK
human CD3, sequence (P09693 23-182, chain 3 of 3): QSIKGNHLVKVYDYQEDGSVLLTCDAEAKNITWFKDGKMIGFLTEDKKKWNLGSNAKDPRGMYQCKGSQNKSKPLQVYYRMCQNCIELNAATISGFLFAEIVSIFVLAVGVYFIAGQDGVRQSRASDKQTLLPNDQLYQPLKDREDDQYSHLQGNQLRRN

Row | CD4 EC50 (nM); CD69/CD25 on human T cells, plate-coated antibody [nM] | CD8 EC50 (nM); CD69/CD25 on human T cells, plate-coated antibody [nM] | Binder
1 | 19.3 | 19.2 | mAb 71 (antibody, V domains shown) VH: QVQLVQSGAEVRKPGASVKVSCKASGYTFTKYDVNWVRQAPGQGLEWMGWMNSNNGNIGYAQKFQGRVTMTRKTSISTAYMELSSLRSEDTAVYYCAREGHYDFWRGFYNFDYWGQGTLVTVSS VL: DIQMTQSPSSLSASVGDRVTITCRASQDIKNDLGWYQQKPGKAPKRLIYAASSLQSGVPSRFSGSGSGTEFTLTISSLQPEDFATYYCLQHNFYPITFGQGTRLEIK
2 | 24.8 | 23 | mAb 73 (antibody, V domains shown) VH: EVELVESGGGLVQPGRSLRLSCAASGFTFDDKVMHWVRQAPGKGLEWVSCINWNSGHIGYADSVKGRFTISRDNARTSLYLQMNSLRPEDTALYYCVREGNYDFWSGYYRGFFDLWGRGTLVTVSS VL: DIQMTQSPSSLSASVGDRVTITCRASQGIRNDLGWYQQKPGKAPKRLIYAASSLQGGVPSRFSGSGSGTEFTLTISSLQPEDFATYYCLQHTSYPFTFGQGTKLEIK
3 | 20.9 | 19.6 | mAb 74 (antibody, V domains shown) VH: EVQLVESGGGLVQPGRSLRLSCAASGFTFADYVMHWVRQAPGKGLEWVSGINWNNARIGYVGSVKGRFTISRDNAKNSLYLQMTSLRVEDTALYHCVREGNFDFWSAYYRGFLDLWGRGTLVTVSS VL: DIQMTQSPSSLSASVGDRVTITCRASQGIRSDLGWYQQKPGKAPKRLIYGASSLQGGVPSRFSGSGSGTEFTLTISSLQPEDFATYYCLQHNSYPYTFGQGTKLEIK
4 | 24.6 | 25.6 | mAb 43 (antibody, V domains shown) VH: QAQLVQSGSELKKPGASVKVSCKASGYTFTKHSMNWVRQAPGQGLEWMGWINTNTGNPMYAQGFTGRFVFSLDTSVTTAYLQISSLKAEDTAVYYCAREGDYDFWSGFFNFDYWGQGTLVTVSS VL: DIQMTQSPSSLSASVGDRVTITCRASQGIRNDLGWYQQKPGKAPKRLIYAASSLQSGVPSRFSGSGSGAEFTLTISSLQPEDFATYYCLQHNSYPRTFGQGTKVEIK
5 | 12.5 | 12.6 | mAb 68 (antibody, V domains shown) VH: EVQLVDSGGGLVQPGGSLRLSCSGSGFTFSSYWMSWVRQAPGKGLEWVANIKQDGSQKYYVDSVKGRFTISRDNVKNSLYLQMNSLRVEDTAVYYCARDESSSWYWYFDLWGRGTLVTVSS VL: DIQMTQSPSTLSASVGDRVTLTCRASQNIVKWLAWYQQKPGKAPKLLIYKASSLESGVPSWFSGSGSGTEFTLTINSLQPDDFATYYCQQYYTYSRTFGQGTKVEIK
6 | 12.9 | 13.1 | mAb 77 (antibody, V domains shown) VH: EVQLVESGGGLVQPGGSLRLSCAASGFTFSNYWMSWVRQAPGKGLEWVANIKQDGSEKYYVDSVRGRFTISRDNAKKSLYLQMNSLRAEDTAVYYCARDNSNYAYWYFDIWGRGTLVTVSS VL: DIQMTQSPSTLSVSVGDRVTITCRASQSIRKWLAWYQQKPGKAPKLLIFKASSLESGVPSRFSGSGSGTEFTLTISSLQPDDFATYYCQQYDTYSRTFGQGTKVEIK
7 | 16.4 | 18.2 | mAb 72 (antibody, V domains shown) VH: EVQLVDSGGGLVQPGGSLRLSCAASGFTFSSYWMSWVRQAPGKGLEWVANIKQDGSEKYYVDSVKGRFTISRDNVKNSLSLEMNSLRAEDTALYYCARDESSSWYWYFDLWGRGTLVTVSS VL: DIQMTQSPSTLSASVGDRVTITCRASQSISKWLAWYQQKPGKAPKLLIYKASSLENGVPSRFSGSGSGTEFTLTISSLQPDDFATYYCQQYSSYSRTFGQGTKVEIK

Reference: patent US20230295310A1 (ABCELLERA BIOLOGICS, published 2023)
